The target of data set [1] is Factor X (FX), P00742.
The target in data set [2] is Factor X, P00742.
Data set [3] deals with plasma purified human AT-III (antithrombin III). As to the kind of experiment: AT-III/UFH inhibition K0.5, ratio to Catalyst Biosciences WT FIXa.
Data set [4] addresses plasma purified human antithrombin III (AT-III), as complex with unfractionated heparin. The experiment in a line: ratio of K0.5 (lower limit) to Catalyst Biosciences WT FIXa, AT-III/UFH inhibition.

Chain of Factor X, P00742 (P00742 whole entry, looked up): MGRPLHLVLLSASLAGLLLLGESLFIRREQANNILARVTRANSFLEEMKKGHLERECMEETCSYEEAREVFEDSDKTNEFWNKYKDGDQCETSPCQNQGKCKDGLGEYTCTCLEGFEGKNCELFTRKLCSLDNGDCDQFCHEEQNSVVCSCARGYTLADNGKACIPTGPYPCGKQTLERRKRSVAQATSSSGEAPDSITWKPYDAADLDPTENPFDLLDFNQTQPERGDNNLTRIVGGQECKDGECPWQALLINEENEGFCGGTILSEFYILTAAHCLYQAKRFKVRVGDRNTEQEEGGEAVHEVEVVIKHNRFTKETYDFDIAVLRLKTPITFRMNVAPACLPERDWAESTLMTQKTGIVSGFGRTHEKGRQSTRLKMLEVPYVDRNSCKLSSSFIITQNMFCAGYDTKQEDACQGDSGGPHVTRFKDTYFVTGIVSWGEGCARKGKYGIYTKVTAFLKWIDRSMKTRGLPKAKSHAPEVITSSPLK
Chain of Factor X (FX), P00742 (P00742 whole entry, looked up): as above

B1: FIXa-Y155F/K228N/R318Y/R338E/R403E/E410N (protein)
chain 1: YNSGKLEEFVQGNLERECMEEKCSFEEAREVFENTERTTEFWKQYVDGDQCESNPCLNGGSCKDDINSYECWCPFGFEGKNCELDVTCNIKNGRCEQFCKNSADNKVVCSCTEGYRLAENQKSCEPAVPFPCGRVSVSQTSKLTR
chain 2: VVGGEDAKPGQFPWQVVLNGKVDAFCGGSIVNEKWIVTAAHCVETGVNITVVAGEHNIEETEHTEQKRNVIRIIPHHNYNAAINKYNHDIALLELDEPLVLNSYVTPICIADKEYTNIFLKFGSGYVSGWGRVFHKGYSALVLQYLRVPLVDRATCLESTKFTIYNNMFCAGFHEGGRDSCQGDSGGPHVTEVEGTSFLTGIISWGEECAMKGKYGIYTKVSEYVNWIKNKTKLT
A word on the kcat: it is the number of substrate molecules converted per active site and unit of time at saturation. One may read the kcat/KM as the turnover number divided by the Michaelis constant. By KM is commonly meant the concentration of substrate that gives half-maximal velocity. For the protein B1, in data set [1], the “% of WT kcat/KM” value amounted to 356%, the kcat turned out to be 9.7 s⁻¹ and the kcat/KM is 1.6e+08 M⁻¹ s⁻¹. For the same protein, in data set [2], the “% of WT kcat/KM” value is listed as 453%, the KM was 0.048 µM and the kcat/KM is 2e+08 M⁻¹ s⁻¹. In data set [3], the K0.5-mut/K0.5-wt is greater than 517. Also, the K0.5-mut/K0.5-wt in data set [4] came out at 517.

B2: FIXa-R318Y/R338E/R403E/T412A (protein)
chain 1: YNSGKLEEFVQGNLERECMEEKCSFEEAREVFENTERTTEFWKQYVDGDQCESNPCLNGGSCKDDINSYECWCPFGFEGKNCELDVTCNIKNGRCEQFCKNSADNKVVCSCTEGYRLAENQKSCEPAVPFPCGRVSVSQTSKLTR
chain 2: VVGGEDAKPGQFPWQVVLNGKVDAFCGGSIVNEKWIVTAAHCVETGVKITVVAGEHNIEETEHTEQKRNVIRIIPHHNYNAAINKYNHDIALLELDEPLVLNSYVTPICIADKEYTNIFLKFGSGYVSGWGRVFHKGYSALVLQYLRVPLVDRATCLESTKFTIYNNMFCAGFHEGGRDSCQGDSGGPHVTEVEGTSFLTGIISWGEECAMKGKYGIYTKVSEYVNWIKEKAKLT
B2: the K0.5-mut/K0.5-wt in data set [3] was greater than 517; in data set [4], 517.

B3: FIXa-D104N/K106S/K247N/N249S/R318Y/R338E/R403E/E410N (protein)
chain 1: YNSGKLEEFVQGNLERECMEEKCSFEEAREVFENTERTTEFWKQYVDGDQCESNPCLNGGSCKDDINSYECWCPFGFEGKNCELDVTCNIKNGRCEQFCKNSANNSVVCSCTEGYRLAENQKSCEPAVPFPCGRVSVSQTSKLTR
chain 2: VVGGEDAKPGQFPWQVVLNGKVDAFCGGSIVNEKWIVTAAHCVETGVKITVVAGEHNIEETEHTEQNRSVIRIIPHHNYNAAINKYNHDIALLELDEPLVLNSYVTPICIADKEYTNIFLKFGSGYVSGWGRVFHKGYSALVLQYLRVPLVDRATCLESTKFTIYNNMFCAGFHEGGRDSCQGDSGGPHVTEVEGTSFLTGIISWGEECAMKGKYGIYTKVSEYVNWIKNKTKLT
For B3, in data set [1], the “% of WT kcat/KM” value amounted to 192%, the turnover number (kcat) came to 5.2 s⁻¹ and the kcat/KM amounted to 8.8e+07 M⁻¹ s⁻¹. Moreover, in data set [2], the “% of WT kcat/KM” value is listed as 197%, the KM turned out to be 0.059 µM and the specificity constant (kcat/KM) stood at 8.8e+07 M⁻¹ s⁻¹. For the same protein, the K0.5-mut/K0.5-wt in data set [3] was greater than 517. In addition, in data set [4], the K0.5-mut/K0.5-wt came out at 517.

B4: FIXa-I251S/R318Y/R338E/R403E/E410N (protein)
chain 1: YNSGKLEEFVQGNLERECMEEKCSFEEAREVFENTERTTEFWKQYVDGDQCESNPCLNGGSCKDDINSYECWCPFGFEGKNCELDVTCNIKNGRCEQFCKNSADNKVVCSCTEGYRLAENQKSCEPAVPFPCGRVSVSQTSKLTR
chain 2: VVGGEDAKPGQFPWQVVLNGKVDAFCGGSIVNEKWIVTAAHCVETGVKITVVAGEHNIEETEHTEQKRNVSRIIPHHNYNAAINKYNHDIALLELDEPLVLNSYVTPICIADKEYTNIFLKFGSGYVSGWGRVFHKGYSALVLQYLRVPLVDRATCLESTKFTIYNNMFCAGFHEGGRDSCQGDSGGPHVTEVEGTSFLTGIISWGEECAMKGKYGIYTKVSEYVNWIKNKTKLT
Regarding B4, in data set [1], the “% of WT kcat/KM” value is listed as 334%, the turnover number (kcat) is 4.8 s⁻¹ and the kcat/KM amounted to 1.5e+08 M⁻¹ s⁻¹. Further, in data set [2], the “% of WT kcat/KM” value was 344%, the Michaelis-Menten constant (KM) amounted to 0.0334 µM and the catalytic efficiency (kcat/KM) was determined as 1.5e+08 M⁻¹ s⁻¹. Moreover, the K0.5-mut/K0.5-wt in data set [3] is greater than 517. Besides, the K0.5-mut/K0.5-wt in data set [4] was 517.

B5: FIXa-R318Y/R338E/N346D/R403E/E410N (protein)
chain 1: YNSGKLEEFVQGNLERECMEEKCSFEEAREVFENTERTTEFWKQYVDGDQCESNPCLNGGSCKDDINSYECWCPFGFEGKNCELDVTCNIKNGRCEQFCKNSADNKVVCSCTEGYRLAENQKSCEPAVPFPCGRVSVSQTSKLTR
chain 2: VVGGEDAKPGQFPWQVVLNGKVDAFCGGSIVNEKWIVTAAHCVETGVKITVVAGEHNIEETEHTEQKRNVIRIIPHHNYNAAINKYNHDIALLELDEPLVLNSYVTPICIADKEYTNIFLKFGSGYVSGWGRVFHKGYSALVLQYLRVPLVDRATCLESTKFTIYDNMFCAGFHEGGRDSCQGDSGGPHVTEVEGTSFLTGIISWGEECAMKGKYGIYTKVSEYVNWIKNKTKLT
On to B5, for which, in data set [1], the Michaelis-Menten constant (KM) was found to be 0.0777 µM and the kcat of FX activation by FIXa (Xase complex with FVIIIa, PC/PS vesicles, Ca2+) was 2.5 s⁻¹. Besides, in data set [3], the K0.5-mut/K0.5-wt is greater than 517. The K0.5-mut/K0.5-wt in data set [4] turned out to be 517.

B6: FIXa-Y155F/K247N/N249S/R318Y/R338E/R403E/E410N (protein)
chain 1: YNSGKLEEFVQGNLERECMEEKCSFEEAREVFENTERTTEFWKQYVDGDQCESNPCLNGGSCKDDINSYECWCPFGFEGKNCELDVTCNIKNGRCEQFCKNSADNKVVCSCTEGYRLAENQKSCEPAVPFPCGRVSVSQTSKLTR
chain 2: VVGGEDAKPGQFPWQVVLNGKVDAFCGGSIVNEKWIVTAAHCVETGVKITVVAGEHNIEETEHTEQNRSVIRIIPHHNYNAAINKYNHDIALLELDEPLVLNSYVTPICIADKEYTNIFLKFGSGYVSGWGRVFHKGYSALVLQYLRVPLVDRATCLESTKFTIYNNMFCAGFHEGGRDSCQGDSGGPHVTEVEGTSFLTGIISWGEECAMKGKYGIYTKVSEYVNWIKNKTKLT
Regarding B6, in data set [1], the “% of WT kcat/KM” value was 405%, the kcat turned out to be 6.5 s⁻¹ and the kcat/KM is 1.9e+08 M⁻¹ s⁻¹. Besides, in data set [2], the “% of WT kcat/KM” value is reported as 408%, the KM was 0.0391 µM and the specificity constant (kcat/KM) stood at 1.8e+08 M⁻¹ s⁻¹. In addition, the K0.5-mut/K0.5-wt in data set [3] was greater than 517. For the same protein, the K0.5-mut/K0.5-wt in data set [4] was found to be 517.

B7: FIXa-K228N/R318Y/R338E/R403E/E410N (protein)
chain 1: YNSGKLEEFVQGNLERECMEEKCSFEEAREVFENTERTTEFWKQYVDGDQCESNPCLNGGSCKDDINSYECWCPFGFEGKNCELDVTCNIKNGRCEQFCKNSADNKVVCSCTEGYRLAENQKSCEPAVPFPCGRVSVSQTSKLTR
chain 2: VVGGEDAKPGQFPWQVVLNGKVDAFCGGSIVNEKWIVTAAHCVETGVNITVVAGEHNIEETEHTEQKRNVIRIIPHHNYNAAINKYNHDIALLELDEPLVLNSYVTPICIADKEYTNIFLKFGSGYVSGWGRVFHKGYSALVLQYLRVPLVDRATCLESTKFTIYNNMFCAGFHEGGRDSCQGDSGGPHVTEVEGTSFLTGIISWGEECAMKGKYGIYTKVSEYVNWIKNKTKLT
For B7, in data set [2], the “% of WT kcat/KM” value came out at 349%, the Michaelis-Menten constant (KM) was 0.0361 µM and the kcat/KM amounted to 1.6e+08 M⁻¹ s⁻¹. Moreover, the K0.5-mut/K0.5-wt in data set [3] is greater than 517. Further, the K0.5-mut/K0.5-wt in data set [4] was 517.

B8: FIXa-Y155F/I251S/R318Y/R338E/R403E/E410N (protein)
chain 1: YNSGKLEEFVQGNLERECMEEKCSFEEAREVFENTERTTEFWKQYVDGDQCESNPCLNGGSCKDDINSYECWCPFGFEGKNCELDVTCNIKNGRCEQFCKNSADNKVVCSCTEGYRLAENQKSCEPAVPFPCGRVSVSQTSKLTR
chain 2: VVGGEDAKPGQFPWQVVLNGKVDAFCGGSIVNEKWIVTAAHCVETGVKITVVAGEHNIEETEHTEQKRNVSRIIPHHNYNAAINKYNHDIALLELDEPLVLNSYVTPICIADKEYTNIFLKFGSGYVSGWGRVFHKGYSALVLQYLRVPLVDRATCLESTKFTIYNNMFCAGFHEGGRDSCQGDSGGPHVTEVEGTSFLTGIISWGEECAMKGKYGIYTKVSEYVNWIKNKTKLT
With B8, in data set [1], the “% of WT kcat/KM” value is recorded as 363%, the kcat was determined as 7.2 s⁻¹ and the kcat/KM worked out at 1.7e+08 M⁻¹ s⁻¹. For the same protein, in data set [2], the “% of WT kcat/KM” value turned out to be 374%, the KM was determined as 0.0433 µM and the kcat/KM amounted to 1.7e+08 M⁻¹ s⁻¹. For the same protein, in data set [3], the K0.5-mut/K0.5-wt is greater than 517. Also, in data set [4], the K0.5-mut/K0.5-wt came out at 517.

B9: FIXa-D104N/K106S/I251S/R318Y/R338E/R403E/E410N (protein)
chain 1: YNSGKLEEFVQGNLERECMEEKCSFEEAREVFENTERTTEFWKQYVDGDQCESNPCLNGGSCKDDINSYECWCPFGFEGKNCELDVTCNIKNGRCEQFCKNSANNSVVCSCTEGYRLAENQKSCEPAVPFPCGRVSVSQTSKLTR
chain 2: VVGGEDAKPGQFPWQVVLNGKVDAFCGGSIVNEKWIVTAAHCVETGVKITVVAGEHNIEETEHTEQKRNVSRIIPHHNYNAAINKYNHDIALLELDEPLVLNSYVTPICIADKEYTNIFLKFGSGYVSGWGRVFHKGYSALVLQYLRVPLVDRATCLESTKFTIYNNMFCAGFHEGGRDSCQGDSGGPHVTEVEGTSFLTGIISWGEECAMKGKYGIYTKVSEYVNWIKNKTKLT
Take B9: in data set [1], the “% of WT kcat/KM” value is 263%, the kcat is 5.5 s⁻¹ and the kcat/KM was 1.2e+08 M⁻¹ s⁻¹. Besides, the K0.5-mut/K0.5-wt in data set [3] is greater than 517. In addition, the K0.5-mut/K0.5-wt in data set [4] was found to be 517.

B10: FIXa-D85N/K228N/R318Y/R338E/R403E/E410N (protein)
chain 1: YNSGKLEEFVQGNLERECMEEKCSFEEAREVFENTERTTEFWKQYVDGDQCESNPCLNGGSCKDDINSYECWCPFGFEGKNCELNVTCNIKNGRCEQFCKNSADNKVVCSCTEGYRLAENQKSCEPAVPFPCGRVSVSQTSKLTR
chain 2: VVGGEDAKPGQFPWQVVLNGKVDAFCGGSIVNEKWIVTAAHCVETGVNITVVAGEHNIEETEHTEQKRNVIRIIPHHNYNAAINKYNHDIALLELDEPLVLNSYVTPICIADKEYTNIFLKFGSGYVSGWGRVFHKGYSALVLQYLRVPLVDRATCLESTKFTIYNNMFCAGFHEGGRDSCQGDSGGPHVTEVEGTSFLTGIISWGEECAMKGKYGIYTKVSEYVNWIKNKTKLT
As for B10, in data set [1], the “% of WT kcat/KM” value was 336%, the kcat is 6 s⁻¹ and the kcat/KM was 1.6e+08 M⁻¹ s⁻¹. For the same protein, in data set [2], the “% of WT kcat/KM” value was 346%, the Michaelis-Menten constant (KM) turned out to be 0.0393 µM and the catalytic efficiency (kcat/KM) amounted to 1.6e+08 M⁻¹ s⁻¹. Besides, in data set [3], the K0.5-mut/K0.5-wt is greater than 517. For the same protein, in data set [4], the K0.5-mut/K0.5-wt worked out at 517.
